Measured values from the supplement of paper PMC9170038.

Test system: MS2 coat protein
Assay: apparent KD of MS2 coat protein; designed switch direction (-1 OFF switch, 1 ON switch): -1; higher = weaker reporter binding
Method in brief: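 Designed RNA switches with common flanks were transcribed on Illumina chips by stalled E. coli RNA polymerase and titrated with SNAP-549-labelled MS2 coat protein, from 0.7 or 1.5 nM doubling to 3 µM, in Tris-HCl pH 7.5 buffer with KCl, MgCl2, BSA, DTT, tRNA and Tween-20. Steps lasted 0.8–1.5 h (lowest) to 10–20 min (highest). Titrations ran without input, with 200 uM small-molecule ligand, or with an oligonucleotide input. Normalised cluster fluorescence was curve-fitted, and apparent KD is the per-design median over clusters.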

[1] = Eterna round: R95, input ligand: FMN 200 uM
[2] = Eterna round: R95, input ligand: microRNA oligo, concentration not stated
[3] = Eterna round: R95, input ligand: none
[4] = input ligand: microRNA oligo, concentration not stated

Sequence	apparent KD of MS2 coat protein (input ligand: FMN 200 uM)	apparent KD of MS2 coat protein (input ligand: none)	apparent KD of MS2 coat protein [1]	apparent KD of MS2 coat protein [2]	apparent KD of MS2 coat protein [3]	apparent KD of MS2 coat protein [4]
GAGGUCGCAGGAUAUAGUACAUAGAACAUGAGGAUCACCCAUGUAGCGGGAGGUUCUAUAUUAGAAGGGUGAAGUC [Eternabot (L2) Solution 97] (Eterna round: R97, puzzle: Exclusion 5)	572 nM	494 nM	–	–	–	–
GAGUGACAUGAGGAUCACCCAUGUGAGGAUAUCGGACGGACCAAAUUAACAAUAGAAGCGAGAAGGCACAUAAG [Exclusion 1 V11] (puzzle: Exclusion 1)	–	–	72.4 nM	74.3 nM	81.3 nM	–
GAGUUAGCGUGUGGCACAUACAUGAGGAUCACCCAUGUUAGCUUAUAUAUUGCUCGUCUUAUAACAACACUUAACUG [Mod JX-Electric-eye5] (Eterna round: R97, puzzle: Sensor, turn-off variant 1)	22.5 nM	23.9 nM	–	–	–	–
GAUACACAUGAGGAUCACCCAUGUGAGGAUAUGCGUACGUUGUCCGUAGGCGACGUGCGCAGAAGGCGCAAGGU [Mat - Mod of JL D96] (puzzle: Exclusion 1)	–	–	–	55 nM	–	–
GAUACCUAUGUAAGGAUAUAUAAAGAGAGCCGCCUGUAGAAGGUACAUGAGGAUCACCCAUGUUGGGAGACCGA [Eternabot (L1) Solution 17] (Eterna round: R97, puzzle: Brourd's mod of Exclusion 4)	1160 nM	1390 nM	–	–	–	–
GAUCAACAUGAGGAUCACCCAUGUGAGGAUAUGUAUCAUAGAUCUUCGGAUCUAUGAUACAGAAGGCAUGUAGG [Ex1-3: 100] (puzzle: Exclusion 1)	–	–	–	74.2 nM	–	–
GAUCAGAUAGGAUAUACAGGCCCGUCUUUAUAUUGAUCCCGACAUGAGGAUCACCCAUGUAGAAGGAUCAGAUC [Mod 28 - Jieux - Exclusion 2] (Eterna round: R97, puzzle: Exclusion 2)	23.3 nM	17.5 nM	–	–	–	–
GAUCAUGCAGGAUAUACAGUUUCCAUGAAAACAUGGAACUCACAUGAGGAUCACCCAUGUAGAAGGGCAUGAUC [Omei Ex2 A26] (Eterna round: R97, puzzle: Exclusion 2)	25.9 nM	16.2 nM	–	–	–	–
GAUCAUGCAGGAUAUACAGUUUCCAUGAAAACAUGGUCCUCACAUGAGGAUCACCCAUGUAGAAGGGCAUGAUC [Omei Ex2 A28] (Eterna round: R97, puzzle: Exclusion 2)	151 nM	1490 nM	–	–	–	–
GAUCCACAUGAGGAUCACCCAUGUGAGGAUAUGAUACUAUGUACUUCGGUACAUAGUAUCAGAAGGCACAUUGA [Ex1-3: 45] (puzzle: Exclusion 1)	–	–	–	136 nM	–	–
GAUCCUUCUGUUAGGAUAUGCUUUGGGCUUCCGCAGCAGAAGGAACAUGAGGAUCACCCAUGUCAAAUAAAAUC [salish99_bmex4_r4_501] (Eterna round: R97, puzzle: Brourd's mod of Exclusion 4)	25.5 nM	27.1 nM	–	–	–	–
GAUCCUUCUGUUAGGAUAUGCUUUGGGCUUCCGCAGCAGAAGGAACAUGAGGAUCACCCAUGUCCAAUGCCAUC [salish99_bmex4_r4_505] (Eterna round: R97, puzzle: Brourd's mod of Exclusion 4)	46.1 nM	39.1 nM	–	–	–	–
GAUCGACAUGAGGAUCACCCAUGUCAGGAUAUGCAACGGACAAAACGAUACGUCAUAGGUAGAAGGGACUGUCU [Eternabot (Original) Solution 2] (Eterna round: R97, puzzle: Exclusion 1)	18.4 nM	17.7 nM	–	–	–	–
GAUGAGAGAGGAUAUACAUGAGGAUCACCCAUGUAAUUUUCGGACAUGGAAGCCUGAUGUAGAAGGCUCGCAUG [Usmaercele] (puzzle: Exclusion 3)	–	–	–	76.3 nM	–	–
GAUGAGGUAGGAUAUACGAGAAGAUAGGGUAGAUAUAUAACACAUGAGGAUCACCCAUGUAGAAGGACCAGUAG [Mat - Exclusion 2 - Mod of my Tesla design - D71] (puzzle: Exclusion 2)	–	–	65.1 nM	36.4 nM	31.7 nM	–
GAUGGCUUAGGAUAUACAUAGAAGAAUUGAACUUGGAUUAUACAUGAGGAUCACCCAUGUAGAAGGAGGUCAUC [ExGluten 4 - Jieux - Exclusion 2] (Eterna round: R97, puzzle: Exclusion 2)	53 nM	29.1 nM	–	–	–	–
GAUGGUCGAGGAUAUGCACCAGGGUCGACCUACUAGCGAAGACAUGAGGAUCACCCAUGUAGAAGGUGGCGGUU [Eternabot (L2) Solution 75] (Eterna round: R97, puzzle: Exclusion 2)	73.9 nM	82.4 nM	–	–	–	–

Sequence	apparent KD of MS2 coat protein (input ligand: FMN 200 uM)	apparent KD of MS2 coat protein (input ligand: none)	apparent KD of MS2 coat protein [1]	apparent KD of MS2 coat protein [2]	apparent KD of MS2 coat protein [3]	apparent KD of MS2 coat protein [4]
GAUUAUGCGAGCUUUAGGGACAUGAGGAUCACCCAUGUUCGUCUUAUUAGUCUGAGUACACUGACAUACCUAAAUCU [JMF 62] (puzzle: Sensor v3, turn-off variant 1)	–	–	14.2 nM	14.8 nM	13.3 nM	–
GAUUAUGCGAGCUUUAGGGACAUGAGGAUCACCCAUGUUCGUCUUAUUGAUCUGGAUGCGCUAACAUACCUAAAUCU [JMF 45] (puzzle: Sensor v3, turn-off variant 1)	–	–	65 nM	71.1 nM	62.9 nM	–
GAUUAUGCGAGCUUUAGGGACAUGAGGAUCACCCAUGUUCGUCUUAUUGAUCUGGGUACGCUAACAUACCUAAAUCU [JMF 42] (puzzle: Sensor v3, turn-off variant 1)	–	–	82.2 nM	89.2 nM	96.7 nM	–
GAUUAUGCGAGCUUUAGGGACAUGAGGAUCACCCAUGUUCGUCUUAUUGGUCUAAAUGCACUGACAUACCUAAAUCU [JMF 74] (puzzle: Sensor v3, turn-off variant 1)	–	–	14.9 nM	19.8 nM	16.7 nM	–
GAUUAUGCGAGCUUUAGGGACAUGAGGAUCACCCAUGUUCGUCUUAUUGGUCUAGAUACACUAACAUACCUAAAUCU [JMF 12] (puzzle: Sensor v3, turn-off variant 1)	–	–	15.2 nM	21.4 nM	17.4 nM	–
GAUUAUGCGAGCUUUAGGGACAUGAGGAUCACCCAUGUUCGUCUUAUUGGUCUGGGUACACUGACAUACCUAAAUCU [JMF 72] (puzzle: Sensor v3, turn-off variant 1)	–	–	33.9 nM	42.2 nM	32.4 nM	–
GAUUCAUAUGACUUUCUAUACAUGAGGAUCACCCAUGUUUGUUUUUUUUGUUUUUCGCUUUUUAGUCGUCUUAUUAU [Gravy 3] (Eterna round: R97, puzzle: Sensor, turn-off variant 1)	19.6 nM	19 nM	–	–	–	–
GAUUGACAUGAGGAUCACCCAUGUGAGGAUAUCGGCCGGACCUUGUUAGCUUCCAGCGCGAGAAGGCGCAUAGG [Exclusion 1 V36] (puzzle: Exclusion 1)	–	–	58.9 nM	28.6 nM	43.4 nM	–
GAUUGACAUGAGGAUCACCCAUGUGAGGAUAUCGGCUGGACCGUGUUGGCUUGGGUUUCGAGAAGGCGCAUAGG [Exclusion 1 V46] (puzzle: Exclusion 1)	–	–	70.5 nM	88.2 nM	74.6 nM	–
GCAAGCUUAAUCACUAUGAACAUGAGGAUCACCCAUGUAUAAGGUAUUACUUUUGGGCCCUUUAUUACUCGUCUUAU [JR_STOV1_Sub031] (Eterna round: R97, puzzle: Sensor, turn-off variant 1)	51.9 nM	54.4 nM	–	–	–	–
GCACGAAGUGUAGGAUAUCUGUGCGAUUAGCUCAGAGAAGGACACAUGAGGAUCACCCAUGUGUUCCACGGAAACGAAACGUGC [Eli exng1 - 053] (Eterna round: R96, puzzle: Exclusion NG 1)	9.14 nM	11.9 nM	–	–	–	8.47 nM
GCACGGAGUGUAGGAUAUCUGUGCGAUUAGCUCAGAGAAGGACACAUGAGGAUCACCCAUGUGUACCUCAACAUUAAUCCGUGC [Eli exng1 - 075] (Eterna round: R96, puzzle: Exclusion NG 1)	10.1 nM	10.1 nM	–	–	–	6.62 nM
GCACGGAGUGUAGGAUAUUAGUGCGAUUAGCACUGAGAAGGACAUGAGGAUCACCCAUGUUCCUCAAUAAUUAGCCUUCCGUGC [Eli exng1 - 038] (Eterna round: R96, puzzle: Exclusion NG 1)	15.2 nM	15.7 nM	–	–	–	9.61 nM
GCACGGAUGGUAGGAUAUCAUUGCGAUUAGCUAUGAGAAGGGCCACAUGAGGAUCACCCAUGUCCUCUAAUUAGCCUUCCGUGC [Eli exng1 - 018] (Eterna round: R96, puzzle: Exclusion NG 1)	–	–	–	–	–	82.3 nM
GCACUGCGAGGAUAUACAUGAGGAUCACCCAUGUGUCGGCAGCCAUGCCAGUACAAAUGUAGAAGGCGCGUAAA [EX3 #55] (Eterna round: R97, puzzle: Exclusion 3)	88.1 nM	27 nM	–	–	–	–
GCACUGCGAGGAUAUACAUGAGGAUCACCCAUGUGUCGGCAGCCAUGUUAUUUCUAAUGUAGAAGGCGCGUAAA [JR_Ex3_Sub001] (Eterna round: R97, puzzle: Exclusion 3)	125 nM	33 nM	–	–	–	–
GCACUUGAACAUGAGGAUCACCCAUGUGUUUUUCUUGUUCGGCAGGAUAUCGUCUAGCGCCAGGACGAGAAGGGCCAAUAAAAG [Ratiarveed] (Eterna round: R96, puzzle: Exclusion NG 3)	77.8 nM	141 nM	–	–	–	61 nM
